Consider 1 molecule from article PMC5909925 (Molecular Biology of the Cell, 2018).

Residue numbers refer to the chain shown, from its start.

In test [1] the target is T1, full-length mouse His6-αE-catenin (WT) (mouse, UniProt P26231 1-906).
T1 sequence (looked up): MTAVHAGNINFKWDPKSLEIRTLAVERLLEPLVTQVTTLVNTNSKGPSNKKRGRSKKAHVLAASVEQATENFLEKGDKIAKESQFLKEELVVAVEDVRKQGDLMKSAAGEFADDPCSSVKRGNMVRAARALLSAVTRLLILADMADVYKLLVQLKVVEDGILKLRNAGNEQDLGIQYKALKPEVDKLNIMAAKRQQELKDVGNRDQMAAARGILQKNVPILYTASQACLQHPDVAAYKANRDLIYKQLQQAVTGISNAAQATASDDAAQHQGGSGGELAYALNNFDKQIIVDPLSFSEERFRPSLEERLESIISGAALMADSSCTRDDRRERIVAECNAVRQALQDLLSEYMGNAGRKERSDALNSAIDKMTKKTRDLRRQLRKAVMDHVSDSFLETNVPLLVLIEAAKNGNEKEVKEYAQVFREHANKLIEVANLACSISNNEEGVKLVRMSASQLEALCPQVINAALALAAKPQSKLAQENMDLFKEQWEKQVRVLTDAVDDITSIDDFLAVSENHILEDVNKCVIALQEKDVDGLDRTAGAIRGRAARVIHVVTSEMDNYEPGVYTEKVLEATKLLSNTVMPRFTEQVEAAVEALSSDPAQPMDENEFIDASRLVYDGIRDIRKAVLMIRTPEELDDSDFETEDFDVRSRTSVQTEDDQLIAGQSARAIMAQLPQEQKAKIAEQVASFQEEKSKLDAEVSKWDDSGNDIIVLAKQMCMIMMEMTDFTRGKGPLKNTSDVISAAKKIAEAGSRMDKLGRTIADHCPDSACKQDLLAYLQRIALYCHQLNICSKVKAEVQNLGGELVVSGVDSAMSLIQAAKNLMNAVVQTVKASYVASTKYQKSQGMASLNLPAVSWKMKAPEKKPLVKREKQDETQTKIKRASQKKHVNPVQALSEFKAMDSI
Briefly: BLI.

Test [2] has as its target T2, full-length mouse His6-αE-catenin R551A (mouse, UniProt P26231 1-906, R551A).
T2 sequence (looked up): T1 sequence (looked up) with R551A
Briefly: BLI.

B1: constitutively active vinculin head domain (VHD, residues 1-252) (domain or fragment, human, UniProt P18206 1-252, looked up)
chain: MPVFHTRTIESILEPVAQQISHLVIMHEEGEVDGKAIPDLTAPVAAVQAAVSNLVRVGKETVQTTEDQILKRDMPPAFIKVENACTKLVQAAQMLQSDPYSVPARDYLIDGSRGILSGTSDLLLTFDEAEVRKIIRVCKGILEYLTVAEVVETMEDLVTYTKNLGPGMTKMAKMIDERQQELTHQEHRVMLVNSMNTVKELLPVLISAMKIFVTTKNSKNQGIEEALKNRNFTVEKMSAEINEIIRVLQLTS
Consider B1, for which the Kd in test [1] was found to be 1800 nM; in test [2], 140 nM.
